Assay results reported in patent US20130115676.
Residue numbers refer to the chain shown, from its start.

What was measured:
Assay in all cases: cleavage_in_vitro
[1] = molecular target: T1, BamHI-HF E163A/E167T (Bacillus amyloliquefaciens) (UniProt P23940); conditions: NEB4, 10 mM Mg acetate, 37 C
T1 sequence: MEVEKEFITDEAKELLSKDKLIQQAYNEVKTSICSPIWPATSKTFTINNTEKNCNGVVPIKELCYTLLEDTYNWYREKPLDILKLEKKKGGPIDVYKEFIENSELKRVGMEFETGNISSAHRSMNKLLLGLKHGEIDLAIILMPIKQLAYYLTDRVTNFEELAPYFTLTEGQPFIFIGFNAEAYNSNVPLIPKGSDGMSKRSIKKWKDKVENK

BstXI-HF N65A = conditions: NEB4, 10 mM Mg acetate, 55 C
[2] = molecular target: T2, HindIII (Haemophilus influenzae Rd) (UniProt P43870); conditions: NEB2, 10 mM MgCl2, 37 C
T2 sequence: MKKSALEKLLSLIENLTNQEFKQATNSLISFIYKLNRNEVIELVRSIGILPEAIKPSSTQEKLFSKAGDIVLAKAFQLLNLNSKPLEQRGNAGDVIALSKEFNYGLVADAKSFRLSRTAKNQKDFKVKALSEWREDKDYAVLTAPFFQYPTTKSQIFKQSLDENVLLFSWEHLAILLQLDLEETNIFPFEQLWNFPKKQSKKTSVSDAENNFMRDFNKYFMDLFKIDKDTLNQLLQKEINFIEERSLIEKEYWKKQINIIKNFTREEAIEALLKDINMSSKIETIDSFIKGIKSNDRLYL

[3] = system: T3, NcoI (Nocardia corallina); conditions: NEB1, 10 mM MgCl2, 37 C
T3 sequence: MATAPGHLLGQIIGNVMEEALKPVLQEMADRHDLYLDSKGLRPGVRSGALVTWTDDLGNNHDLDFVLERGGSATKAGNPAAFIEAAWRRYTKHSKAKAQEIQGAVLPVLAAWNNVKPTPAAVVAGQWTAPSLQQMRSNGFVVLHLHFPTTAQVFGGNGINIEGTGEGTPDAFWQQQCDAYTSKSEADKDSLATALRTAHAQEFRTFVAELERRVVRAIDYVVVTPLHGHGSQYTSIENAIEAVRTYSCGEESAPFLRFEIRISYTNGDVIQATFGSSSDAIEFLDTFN

[4] = system: T4, NcoI-HF A2T/R31A (Nocardia corallina); conditions: NEB4, 10 mM Mg acetate, 37 C
T4 sequence: T3 sequence with A2T, R31A

[5] = molecular target: T5, PstI (Providencia stuartii 164) (UniProt P00640); conditions: NEB3, 10 mM MgCl2, 37 C
T5 sequence: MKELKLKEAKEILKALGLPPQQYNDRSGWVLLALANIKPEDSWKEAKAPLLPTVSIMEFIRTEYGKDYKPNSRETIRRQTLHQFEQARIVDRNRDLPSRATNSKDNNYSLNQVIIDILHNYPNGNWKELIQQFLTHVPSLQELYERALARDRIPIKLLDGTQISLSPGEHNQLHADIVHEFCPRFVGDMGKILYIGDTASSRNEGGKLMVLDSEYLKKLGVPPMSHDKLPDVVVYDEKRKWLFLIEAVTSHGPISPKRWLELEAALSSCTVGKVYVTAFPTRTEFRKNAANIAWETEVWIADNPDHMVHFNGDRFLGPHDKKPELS

[6] = system: T6, SbfI (Streptomyces species Bf-61?); conditions: NEB1, 10 mM MgCl2, 37 C
T6 sequence: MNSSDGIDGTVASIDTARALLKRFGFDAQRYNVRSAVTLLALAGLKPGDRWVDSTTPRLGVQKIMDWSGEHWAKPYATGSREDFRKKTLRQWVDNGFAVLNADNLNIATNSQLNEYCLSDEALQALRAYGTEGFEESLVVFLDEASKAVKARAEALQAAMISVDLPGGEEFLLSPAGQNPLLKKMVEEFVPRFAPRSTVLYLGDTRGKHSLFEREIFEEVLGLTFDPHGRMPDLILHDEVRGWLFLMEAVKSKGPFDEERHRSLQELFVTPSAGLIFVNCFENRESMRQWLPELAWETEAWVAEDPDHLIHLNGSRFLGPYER

[7] = system: T7, SbfI-HF K251A (Streptomyces species Bf-61?); conditions: NEB1, 10 mM MgCl2, 37 C
T7 sequence: T6 sequence with K251A

[8] = molecular target: T8, ScaI (Streptomyces caespitosus) (UniProt O52691); conditions: NEB2, 10 mM MgCl2, 37 C; printed as 1/8
T8 sequence: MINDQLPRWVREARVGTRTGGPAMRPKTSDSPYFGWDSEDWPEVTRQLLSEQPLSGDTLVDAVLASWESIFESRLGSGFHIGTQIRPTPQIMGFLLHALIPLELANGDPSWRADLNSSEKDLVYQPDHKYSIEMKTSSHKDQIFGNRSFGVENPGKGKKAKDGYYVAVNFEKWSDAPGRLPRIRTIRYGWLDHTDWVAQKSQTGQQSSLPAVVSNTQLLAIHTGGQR

[9] = system: T9, SphI-HF K100A (Streptomyces phaeochromogenes); conditions: NEB4, 10 mM Mg acetate, 37 C
T9 sequence: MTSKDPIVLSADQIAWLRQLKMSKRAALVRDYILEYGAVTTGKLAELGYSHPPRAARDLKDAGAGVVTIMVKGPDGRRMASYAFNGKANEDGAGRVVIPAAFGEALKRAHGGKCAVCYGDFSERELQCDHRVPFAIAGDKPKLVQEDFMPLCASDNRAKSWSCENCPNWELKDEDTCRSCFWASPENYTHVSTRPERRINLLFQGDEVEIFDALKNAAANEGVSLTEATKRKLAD

With lambda DNA the activity (fidelity index) [1] was over 4000, the activity (fidelity index) (BstXI-HF N65A) was over 250 and the activity (fidelity index) [2] was 250. It also gave an activity (fidelity index) [3] of 120, an activity (fidelity index) [4] of over 64000 and an activity (fidelity index) [5] of 120. It also gave an activity (fidelity index) [6] of 32, an activity (fidelity index) [7] of 1000 and an activity (fidelity index) [8] of 0.125. It also gave an activity (fidelity index) [9] of 8000.
